From US20150094271A1 (SAMSUNG ELECTRONICS, published 2015)
No end group written: not given here.

B1: His6-HDM2NTD (other, human)
chain: HHHHHHMCNTNMSVPTDGAVTTSQIPASEQETLVRPKPLLLKLLKSVGAQKDTYTMKEVLFYLGQYIMTKRLYDEKQQHIVYCSNDLLGDLFGVPSFSVKEHRKIYTMIYRNLVVVNQQESSDSGTSVSEN
notes: range 1-125; Tag placed N-terminally by its name only
B2: GST-p53LZ2 (leucine zipper variant p53LZ2, inventive, tagged with GST) (designed binder)
chain: RMKQLEDKVGELLFSNYWLELEVARLKKLV
modifications: not fully specified (N-terminus); also: parallel homodimer, GST junction linker letters not given here
notes: not shown: GST carrier (pGEX-4T3 vector) and its junction linker
B3: HDM2NTD (N-terminal domain of HDM2, amino acids 1 to 125 of NP-002383) (other, human, UniProt Q00987 1-125, looked up)
chain: MCNTNMSVPTDGAVTTSQIPASEQETLVRPKPLLLKLLKSVGAQKDTYTMKEVLFYLGQYIMTKRLYDEKQQHIVYCSNDLLGDLFGVPSFSVKEHRKIYTMIYRNLVVVNQQESSDSGTSVSEN
notes: range 1-125
B4: His6-HDMXNTD (other, human)
chain: HHHHHHMTSFSTSAQCSTSDSACRISPGQINQVRPKLPLLKILHAAGAQGEMFTVKEVMHYLGQYIMVKQLYDQQEQHMVYCGGDLLGELLGRQSFSVKDPSPLYDMLRKNLVTLATATTDAAQTLALAQDHSMDIPS
notes: range 1-132; Tag placed N-terminally by its name only
B5: HDMXNTD (N-terminal domain of HDMX, amino acid residues 1 to 132 of NP-001191100) (other, human, UniProt O15151 1-132, looked up)
chain: MTSFSTSAQCSTSDSACRISPGQINQVRPKLPLLKILHAAGAQGEMFTVKEVMHYLGQYIMVKQLYDQQEQHMVYCGGDLLGELLGRQSFSVKDPSPLYDMLRKNLVTLATATTDAAQTLALAQDHSMDIPS
notes: range 1-132; also called HDM4

Key:
[1] = biological target: B5; assay: ITC, p53LZ2 with HDMXNTD
[2] = biological target: B3; assay: ITC, 0.5 mM p53LZ2 injected into 0.03 mM HDM2NTD, PBS pH 7.4, 18 °C
Procedure: Meanwhile, the binding of p53LZ2 to HDM2 and HDMX was evaluated by ITC (isothermal titration calorimetry).

[3] = biological target: B5; assay: ITC (FIG. 6)
GST [4] = biological target: T1, GST (UniProt P08515 1-218 = GST); assay: GST pull-down on glutathione resin, 12% SDS-PAGE of the eluate
T1 construct: Negative control in the pull-down; also called glutathione S-transferase tag alone (control)

[5] = biological target: B3; assay: ELISA, HDM2NTD coated at 20 µg/ml, HRP anti-GST antibody, absorbance at 450 nm
Procedure: (§1) HDM2 or HDMX was diluted to a concentration of 20 μg/ml in a coating buffer (pH 9.6; 0.05M carbonate-bicarbonate buffer, pH 9.6 (Sigma-Aldrich)), applied to 96-well plates (Nunc, Maxisorp) and incubated overnight at 4° C. Then, the plates were treated with 300 μl of 3% skim milk w/PBS-T (room temperature, 3 hrs) to block the binding of other proteins. The 96-well plates were washed with 200 μL of PBS-T before each well was treated with serial dilutions of 0, 50, 100, 200, 400, 800, 1200, 1600, 2400, 3200, 4800, and 6400 nM of GST-WT p53, GST-p53LZ1, GST-p53LZ2, GST, pDIQ, and pMI.
(§2) After one hour of incubation, the plates were washed three times with 300 μL of PBS-T, and incubated at room temperature for 1 hr with 100 μL of an HRP conjugated-anti-GST antibody (Abcam, 1:2000). Thereafter, treatment with TMB substrate (Pierce, 100 μL) for 5 min developed a color. A stop solution (Pierce, 100 μL) was added, followed by reading absorbance at 450 nm on microwell reader (Molecular Device, Model: 340PC384).

full-length HDM2 = biological target: T2, full-length HDM2 (human, UniProt Q00987 1-491); assay: ELISA, full-length HDM2 coated at 20 µg/ml, HRP anti-GST antibody, absorbance at 450 nm
T2 construct: mature
Procedure: as §1, §2

[6] = biological target: B5; assay: ELISA, HDMXNTD coated at 20 µg/ml, HRP anti-GST antibody, absorbance at 450 nm
Procedure: as §1, §2

GST [7] = biological target: T1, GST; assay: ELISA, HDM2NTD coated at 20 µg/ml, HRP anti-GST antibody, absorbance at 450 nm
Procedure: as §1, §2

GST [8] = biological target: T1, GST; assay: ELISA, HDMXNTD coated at 20 µg/ml, HRP anti-GST antibody, absorbance at 450 nm
Procedure: as §1, §2

T1 sequence (P08515 whole entry): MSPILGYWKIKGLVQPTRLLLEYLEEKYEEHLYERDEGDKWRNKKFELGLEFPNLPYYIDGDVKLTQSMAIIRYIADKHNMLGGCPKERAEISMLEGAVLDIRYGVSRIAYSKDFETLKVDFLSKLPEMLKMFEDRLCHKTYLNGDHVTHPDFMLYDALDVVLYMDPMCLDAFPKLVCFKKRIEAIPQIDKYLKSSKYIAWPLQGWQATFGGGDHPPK

With RMKQLEDKVGELLFSNYWLELEVARLKKLV (designed binder) [leucine zipper variant p53LZ2] the “-TΔS” value [1] was 4.85 kJ/mol, the N [1] was 0.65 and the ΔH [1] was -40.4 kJ/mol. For the same binder, the “-TΔS” value [2] was 6.19 kJ/mol, the Kd [2] was 0.0178 µM and the N [2] was 0.65. It also gave a ΔH [2] of -49.2 kJ/mol and a Kd [3] of roughly 0.08 µM.

B1: no binding (GST [4]).

B2 was tested, and the “EC50 (read off the curve)” value [5] was roughly 0.2 µM, the “EC50 (read off the curve)” value (full-length HDM2) was roughly 0.3 µM and the “EC50 (read off the curve)” value [6] was roughly 0.2 µM.

B3: no binding (tested: 6400 nM) (GST [7]).

B4: no binding (GST [4]).

B5: no binding (tested: 6400 nM) (GST [8]).
